From the supplement of paper PMC9732359
± gives the uncertainty stated by the source.

Experiment: protein stability index of a GFP-peptide fusion (yeast GPS) (PSI 1-4); higher = more stable; sorted into four equal gates, so the index is relative within each strain
Conditions: pdr5∆
How it was run: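 Plasmids in a pooled yeast library fused tiled 17-residue yeast protein peptides downstream of GFP and also expressed Cherry. Mid-log cultures grown without leucine were sorted into four equal gates by GFP/Cherry fluorescence ratio. Each gate's plasmids were PCR-amplified and Illumina-sequenced, and reads were matched to strains by barcodes. The protein stability index is derived by multiplying each gate's read frequency by its gate number and summing the results.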

Sequence | protein stability index
ISNLTQEQVQDYVNKTN [FAS1] | 2.81 ± 0.043
ISSAKLDKFTDGGLFTL [QCR2] | 3.06 ± 0.15
ISSLFTITTILILGLNT [YML103C/NUP188] | 1.75 ± 0.094
ISSPIVANSPNKRLDVI [YDL088C/ASM4] | 2.88 ± 0.14
ISTPIINAVLVNDNDER [RPO31] | 2.22 ± 0.1
ISVGESGDRLTRASKVL [RPL11A] | 3.08 ± 0.19
ITKMLASDESLLRYGGA [RPN2] | 3.41 ± 0.17
ITLLTRQRELLIAHQRS [GRR1] | 2.14 ± 0.038
ITLRTSGELLQGIVRVY [MCD1] | 2.9 ± 0.063
ITNKHQEGLAKFGACVA [RPN2] | 1.97 ± 0.038
ITSDALEGITTTIDSLN [SMC3] | 2.93 ± 0.084
ITSIPKPLTENCKKKKK [RMP1] | 2.75 ± 0.12
ITVVPVVAAAEDDDNEQ [QCR6] | 2.04 ± 0.064
IVAAGGGSGAATFSVSQ [CSL4] | 3.47 ± 0.2
IVAALPISEKGLTLSTT [RPP1] | 2.61 ± 0.063
IVDDKQEMIDILETIFR [DIB1] | 3.17 ± 0.13
IVDGKLKTEKIFKEINE [FAS1] | 1.85 ± 0.13
IVFDICQILDGELDVLQ [PRP8] | 2.63 ± 0.11
IVKFKQKEEGRSFTKAI [YLR335W/NUP2] | 3.09 ± 0.066
IVLGVKDLQENLLVLRG [RPO21] | 1.35 ± 0.057
IVLIKGISSAYIKSATL [SNU114] | 2.05 ± 0.069
IVPGTYIQERNPTQRPQ [RPS10A] | 3.08 ± 0.043
IWFPEDFISPELIIDKV [MED1] | 2.66 ± 0.069
IWLIKCCYFIEWKSNHK [SRB8] | 2.12 ± 0.063
IWLKDFIAVGQILPESQ [SIR3] | 2.37 ± 0.28

Sequence | protein stability index
IWNDVVYGEGTSRVTGI [YJL039C/NUP192] | 3.4 ± 0.17
IYAKQQEQLKQMDQQLQ [ARP7] | 2.05 ± 0.079
IYINKSVPTNSADAPNP [RET1] | 3.2 ± 0.061
IYNGKAFNQVEIRPEML [RPS15] | 3.04 ± 0.18
IYNSTDSNSEILNFLNQ [YML103C/NUP188] | 2.72 ± 0.067
IYPRTVIDIEIHVLEQD [SKI6] | 1.88 ± 0.049
IYQIHIPYAAKLLFQEL [RPB2] | 1.98 ± 0.12
KAANFIQNQSPQFNSPY [SWI1] | 1.71 ± 0.046
KACKTADKLVNVTQNEQ [SRP68] | 3.04 ± 0.095
KAEFSKEMTLQKNMNDL [YIL149C/MLP2] | 3.3 ± 0.086
KAEKKVELHGKRKLDIG [PRP8] | 2.8 ± 0.17
KAELIKPIQNGEIIDIS [ARP9] | 3.02 ± 0.1
KAGGECITLDQLAVRAP [RPL18A] | 2.29 ± 0.085
KAINQELEDVAVKKLYA [YCS4] | 3.23 ± 0.13
KAKKLIQSLPPTLKVNR [RPL38] | 2.18 ± 0.039
KAKRAKTGSASTVKGSV [TAF14] | 2.66 ± 0.24
KAKRSNLYTPKAEMPPE [PRP8] | 3.05 ± 0.081
KAMSSRAGVSQVLNRYT [RPB2] | 3.21 ± 0.096
KANEKKESDESKSAFSF [YJL041W/NSP1] | 3.4 ± 0.07
KARNGLDYVRTPAAATS [SNF2] | 2.44 ± 0.072
KDDGAFVKFLSKKGSLE [RPL10] | 3.32 ± 0.14
KDHDLKIPLPEVHDLIG [POP1] | 2.91 ± 0.14
KDILVKTGITKKDEDEE [PRE9] | 3.27 ± 0.087
KDKTKNISAEIIRHEKE [SMC4] | 3.02 ± 0.12
KDLKFPLPHRVQKSTKT [RPL20A] | 2.68 ± 0.05

Sequence | protein stability index
KDNAKISNNLALVFAAL [SRP68] | 1.86 ± 0.038
KDRIIDERTKEFEKKLQ [YIL149C/MLP2] | 3.06 ± 0.19
KDYSQILKEEFPKIDSL [RPN5] | 2.35 ± 0.24
KEALLGQLLKDHLIIEP [ARP9] | 1.51 ± 0.077
KEALQNNIFKEFTSKIG [SMC1] | 2.3 ± 0.082
KEAVFKSLGVKSLGGGA [FAS2] | 3.36 ± 0.12
KEEFIMMVNISVLISIP [PCI8] | 1.33 ± 0.033
KEEFSSAENRDEKDYLT [CSE2] | 2.85 ± 0.086
KEKEAAESPEEADVEMS [PUP2] | 3.51 ± 0.11
KEKIKGLQDEIMKIGGI [SMC4] | 3.19 ± 0.055
KELDQELIIDPLFKKAL [BRN1] | 3.07 ± 0.073
KELFGEDEDEDLFGDSN [SSN2] | 3.54 ± 0.2
KELNEKIQKLEEDDEGE [RPN7] | 1.61 ± 0.12
KELVECHLYSQRMHAIH [NNF1] | 2.05 ± 0.049
KEMTLQKNMNDLLRSQL [YIL149C/MLP2] | 2.43 ± 0.052
KENGQLIGAATKFKGGK [SEC65] | 1.65 ± 0.073
KEQADIYAKQQEQLKQM [ARP7] | 2.25 ± 0.086
KERKLRENIAMLKRFFP [SMC1] | 2.52 ± 0.14
KERLVRDKKEKKQAQKQ [SMB1] | 3.21 ± 0.086
KERNSLKKLKAMNDACY [BRR2] | 3.16 ± 0.059
KERTKSLEHELKRSTEL [YIL149C/MLP2] | 3.36 ± 0.28
KESDLLEETRTTIGDTT [BRN1] | 3.18 ± 0.064
KETTIEKLSSEIENLDK [YIL149C/MLP2] | 2.89 ± 0.071
KEYELLTLQEDYIKDEQ [RPT3] | 3.13 ± 0.11
KEYENHSGELMRQQSKE [SMC1] | 2.85 ± 0.077

Sequence | protein stability index
KFANQLHDEYLVSMRYP [RPN3] | 2.9 ± 0.07
KFGYILCVLDYDNIDIQ [RPB7] | 2.08 ± 0.09
KFMELERKTLERQQENL [SWI3] | 3.23 ± 0.1
KFNKSKAKFTSLAVRSL [YCS4] | 2.01 ± 0.056
KFPETSYPILNESSTFL [SIN4] | 2.71 ± 0.034
KFSDLKFILQILQILNL [YML103C/NUP188] | 2.12 ± 0.29
KGDRALLVKLSKRLPLR [BRR2] | 2.57 ± 0.042
KGEQIAIFPYQDPIFGS [ECM29] | 2.28 ± 0.053
KGEVVLVNIRTQTSKEQ [ITC1] | 2.5 ± 0.15
KGEVYTIPLGGSVHKLP [PRE3] | 2.95 ± 0.082
KGNFRTKPFENVEKYPT [SNU114] | 3 ± 0.24
KGNLLEGKKVMAPYLPG [RPN2] | 1.95 ± 0.042
KGSRFISTLQVKLYGRE [RPB2] | 2.3 ± 0.057
KGVYLILSEILCQINKC [YML103C/NUP188] | 1.56 ± 0.047
KHGAKKVAKRTKIKPFI [RPL27A] | 2.97 ± 0.082
KHISASIDNDFSEEKAE [YAR002W/NUP60] | 3.02 ± 0.065
KHITVRLTAKRLIEHDP [SRP14] | 2.52 ± 0.044
KHYLEDKLKVYKQAMNE [SNF5] | 3.18 ± 0.12
KIEGCISQVSSIHAIGS [RPB7] | 2.48 ± 0.16
KIGEEDYGEEIKSGVAK [MTW1] | 2.93 ± 0.14
KIHLYEKKLEDYCRILS [YGL172W/NUP49] | 2.34 ± 0.12
KIIDNPKSFLKKDQSVL [YMR129W/POM152] | 3.34 ± 0.098
KIKFDESSKLMTVTKVS [BRR2] | 1.36 ± 0.078
KIPDTYTANTSAQSIAS [YAR002W/NUP60] | 2.13 ± 0.056
